T1: FcγRIIa type R (human, UniProt P12318 34-217)
T1 chain: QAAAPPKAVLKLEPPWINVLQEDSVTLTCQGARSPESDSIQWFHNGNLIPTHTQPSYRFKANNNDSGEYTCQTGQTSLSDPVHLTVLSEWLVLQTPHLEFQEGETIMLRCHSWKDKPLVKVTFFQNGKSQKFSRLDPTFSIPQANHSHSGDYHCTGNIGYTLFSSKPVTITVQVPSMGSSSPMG


Key:
[1] = biological target: T2, FcγRIa extracellular domain with C-terminal His tag (human, UniProt P12314 16-292); experiment: SPR, captured antibody, FcgR analyte
T2 construct: also called FcgRIa
Experimental: Relative binding activities were calculated for the results of analyzing interactions with the respective FcγRs according to the following method.

FcγRIIa type R = biological target: T1, FcγRIIa type R; experiment: SPR (Biacore), captured antibody, soluble FcγR

T2 sequence (P12314 16-292): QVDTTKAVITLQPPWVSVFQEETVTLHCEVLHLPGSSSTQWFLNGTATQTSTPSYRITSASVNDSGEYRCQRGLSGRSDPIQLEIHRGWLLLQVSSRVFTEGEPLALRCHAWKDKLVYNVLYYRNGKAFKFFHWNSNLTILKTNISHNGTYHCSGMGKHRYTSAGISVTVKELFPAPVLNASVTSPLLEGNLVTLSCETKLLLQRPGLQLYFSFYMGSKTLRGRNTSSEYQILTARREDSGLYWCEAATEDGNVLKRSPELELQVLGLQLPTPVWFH

Binder | relative binding activity [1] | Kd (FcγRIIa type R)
IL6R-BP181/IL6R-L (antibody, human IgG1, kappa) heavy: QVQLQESGPGLVKPSETLSLTCAVSGHSISHDHAWSWVRQPPGEGLEWIGFISYSGITNYNPSLQGRVTISRDNSKNTLYLQMNSLRAEDTAVYYCARSLARTTAMDYWGEGTLVTVSSASTKGPSVFPLAPSSKSTSGGTAALGCLVKDYFPEPVTVSWNSGALTSGVHTFPAVLQSSGLYSLSSVVTVPSSSLGTQTYICNVNHKPSNTKVDKKVEPKSCDKTHTCPPCPAPDLLGGDSVFLFPPKPKDTLMISRTPEVTCVVVDVSHEDGEVKFNWYVDGVEVHNAKTKPREEQYNSTYRVVSVLTVLHQDWLNGKEYKCKVSNAALPKPIEKTISKAKGQPREPQVYTLPPSRDELTKNQVSLTCLVKGFYPSDIAVEWESNGQPENNYKTTPPVLDSDGSFFLYSKLTVDKSRWQQGNVFSCSVMHEALHNHYTQESLSLSP light: not shown | 108 relative (IL6R-BF648/IL6R-L = 100) | –
IL6R-BP191/IL6R-L (antibody, human IgG1, kappa) heavy: QVQLQESGPGLVKPSETLSLTCAVSGHSISHDHAWSWVRQPPGEGLEWIGFISYSGITNYNPSLQGRVTISRDNSKNTLYLQMNSLRAEDTAVYYCARSLARTTAMDYWGEGTLVTVSSASTKGPSVFPLAPSSKSTSGGTAALGCLVKDYFPEPVTVSWNSGALTSGVHTFPAVLQSSGLYSLSSVVTVPSSSLGTQTYICNVNHKPSNTKVDKKVEPKSCDKTHTCPPCPAPDLLGGDSVFLFPPKPKDTLMISRTPEVTCVVVDVSDEDGEVKFNWYVDGVEVHNAKTKPREEQYNSTYRVVSVLTVLHQDWLNGKEYKCKVSNAALPKPIEKTISKAKGQPREPQVYTLPPSRDELTKNQVSLTCLVKGFYPSDIAVEWESNGQPENNYKTTPPVLDSDGSFFLYSKLTVDKSRWQQGNVFSCSVMHEALHNHYTQESLSLSP light: not shown | 125 relative (IL6R-BF648/IL6R-L = 100) | –

The remaining lines, values ahead:

relative binding activity [1] | Kd (FcγRIIa type R) | Binder
– | 0.39 µM | IL6R-BP428/IL6R-L (antibody, human IgG1, kappa, Alterations in EU numbering, introduced into IL6R-B3) heavy: QVQLQESGPGLVKPSETLSLTCAVSGHSISHDHAWSWVRQPPGEGLEWIGFISYSGITNYNPSLQGRVTISRDNSKNTLYLQMNSLRAEDTAVYYCARSLARTTAMDYWGEGTLVTVSSASTKGPSVFPLAPSSKSTSGGTAALGCLVKDYFPEPVTVSWNSGALTSGVHTFPAVLQSSGLYSLSSVVTVPSSSLGTQTYICNVNHKPSNTKVDKKVEPKSCDKTHTCPPCPAPDLLGDDSVFLFPPKPKDTLMISRTPEVTCVVVDVGEEDGEVKFNWYVDGVEVHNAKTKPREEQYNSTYRVVSVLTVLHQDWLNGKEYKCKVSNKALPRPIEKTISKAKGQPREPQVYTLPPSRDELTKNQVSLTCLVKGFYPSDIAVEWESNGQPENNYKTTPPVLDSDGSFFLYSKLTVDKSRWQQGNVFSCSVMHEALHNHYTQESLSLSP light: not shown
– | 0.35 µM | IL6R-BP264/IL6R-L (antibody, human IgG1, kappa, E233D/G237D/P238D/H268E/P271G/Y296D/A330R (EU numbering) in IL6R-B3) heavy: QVQLQESGPGLVKPSETLSLTCAVSGHSISHDHAWSWVRQPPGEGLEWIGFISYSGITNYNPSLQGRVTISRDNSKNTLYLQMNSLRAEDTAVYYCARSLARTTAMDYWGEGTLVTVSSASTKGPSVFPLAPSSKSTSGGTAALGCLVKDYFPEPVTVSWNSGALTSGVHTFPAVLQSSGLYSLSSVVTVPSSSLGTQTYICNVNHKPSNTKVDKKVEPKSCDKTHTCPPCPAPDLLGDDSVFLFPPKPKDTLMISRTPEVTCVVVDVSEEDGEVKFNWYVDGVEVHNAKTKPREEQDNSTYRVVSVLTVLHQDWLNGKEYKCKVSNKALPRPIEKTISKAKGQPREPQVYTLPPSRDELTKNQVSLTCLVKGFYPSDIAVEWESNGQPENNYKTTPPVLDSDGSFFLYSKLTVDKSRWQQGNVFSCSVMHEALHNHYTQESLSLSP light: not shown
– | 0.0021 µM | IL6R-BP253/IL6R-L (antibody, human IgG1, kappa, S267E/L328F (EU numbering) in IL6R-B3; comparative control) heavy: QVQLQESGPGLVKPSETLSLTCAVSGHSISHDHAWSWVRQPPGEGLEWIGFISYSGITNYNPSLQGRVTISRDNSKNTLYLQMNSLRAEDTAVYYCARSLARTTAMDYWGEGTLVTVSSASTKGPSVFPLAPSSKSTSGGTAALGCLVKDYFPEPVTVSWNSGALTSGVHTFPAVLQSSGLYSLSSVVTVPSSSLGTQTYICNVNHKPSNTKVDKKVEPKSCDKTHTCPPCPAPELLGGPSVFLFPPKPKDTLMISRTPEVTCVVVDVEHEDPEVKFNWYVDGVEVHNAKTKPREEQYNSTYRVVSVLTVLHQDWLNGKEYKCKVSNKAFPAPIEKTISKAKGQPREPQVYTLPPSRDELTKNQVSLTCLVKGFYPSDIAVEWESNGQPENNYKTTPPVLDSDGSFFLYSKLTVDKSRWQQGNVFSCSVMHEALHNHYTQESLSLSP light: not shown

From US20210261648A1 (published 2021)
